# Source: the domain aggregation screens of Martell et al. (2025)
# Assay: soluble fraction after stress (log2 fold change); higher = more stays soluble; pooled small domains, quantitative proteomics
# Settings: stress: pH 4
# In short: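 After pH 4 stress, pooled custom libraries of small protein domains were quantified with high-throughput quantitative proteomics. Aggregation propensity is taken from the fold change in each domain's soluble amount following the acid stress. The scale is log2, where higher values mean more stayed soluble.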
row,Sequence,soluble fraction (log2)
1,HMDNTSNVEKTLRFIRQRGKVSRKEVETLLGSSKFPAISALNELLAENKIVKTGSGPAVRYSVS,0.018
2,HMDNVINDGMQVRFTGNVDINGTPLKIYDRIYTAEGISDDTVVLMLGNDVYARVYLSDVVPAD,-0.275
3,HMDNWLSGLAVEADRMILTQPGEVFDRLSRAFEATLIRRALASTGGRRIEAAHLLGIGRNTITRKIQDLGL,-1.45
4,HMDPDARQDAEVWLLDFLSAGPRTAQEIFTAARVEGHTRVTVKRAKATAGIQSVKQDFDGPWVWVLPGSG,-0.932
5,HMDPFAYEVKVTDLAAGSSEIRTVYTEQGSFNIPSGMSGNLKIQVRSASMYDEVEPSDWYTIGEEDIN,-0.461
6,HMDPLASLTPREREVLSLMAQGLSNLAVAERLVVSAGAVEKHISSIFTKLDLAPSEHEHRRVLAVLRYVAG,-2.09
7,HMDPPISNDARNAINAKLMKFSELHPNEMKKLVEAYKKEFKVSKISPITLARQGEFLSHAISKIDDT,-0.0331
8,HMDPQDGTVKFFNGARGFGFITPDGGGADVFVHVSAVERAGLTQLVEGQRVNFQTLPDTKGKGPKAVNLKV,-0.531
9,HMDPSDQLYTVPPSAEGLRLDLFLVQHVPHMTRALATQLTGAGQVRVNGRRAKKGDRLPSGAQVRLEQAP,-0.138
10,HMDPSHGESRENLDIMRIIDETHLEYPSWGYRKMTDHLRANHGYTINRKRVRRLMRLMDIIALFPG,-0.908
11,HMDPSVTGLLTRLGISPQTAQELAGQYEEPYILEKIAIVEAHPEYVKNAAGFVITALQEDWKD,-1.37
12,HMDPTHDMHFLVKDQVTGQPLPNMPYRLQLDNGQTLTGRTDALGMTEKISGHSPHIASIEVPY,0.025
13,HMDPVILDINSVKALLGISNKADFMAELSRLVVTEGDKKMIIPLAKEVGIDNVAVYKRNEIENISNYK,-0.297
14,HMDQAEDVLSIPVDALMRGNQVYIKDDTVTEQQGPIPAGFKAVEVETGLISDSYVEIKSGLSEGDTVYVAE,-0.661
15,HMDQESFGYFHVKYADVKQVADLVQKLNIPAVTWADERTRRLVALGSPATLQRISQVLNMVDL,-0.476
16,HMDQHPYGEDSFRGDNPPAGFDIKGNEDSMKFHEPSSPWYGRTIAEVWFRSAAAAEAAGFVNAV,-0.0254
17,HMDQINNDLRKLIEFLPEDQKTVLKMRHFQEMSFKEIAKATGVSINTALGRMRYALINLRKLIEENEI,-0.903
18,HMDQPLIEPLSERELEVLSLIAAGYSNAEIAERLVIAVGTVKRHINNLYGKLGAGSRTQALAIAREIGLM,-0.661
19,HMDQTKYDAIITEAKKLTAEGQYKESEEKLATIPVSDLGKPHYSIVKETVEKLNNQNNEGLKRQEEVAVE,-0.0626
20,HMDQVLHQLVEVLRRSEIRISPAETLDAFKVLRNVGIDNKSLLREALALTLAKSIHEKIIFYETFDEFFT,-1.08
21,HMDRADIDAVDAEWVRATMERLGLRAKHIESHTGISKSTLSILLNGHRPLTRWHKIAFYYLFKHIEF,-1.82
22,HMDRDQNVEEGQRSLKSEMGRFGLLIANMDDLAERVNYGNAEDMYAAIGAGDLRLMQVVHAAEEMLG,-0.61
23,HMDRENNITAGREILEKELSRLALNMKMVNLQDYAARFNVKHSDDILAGIGAGDIRPAHIVNAIAEKLT,-0.304
24,HMDREQLELYVGEVRVLQVGELRRIAIGNGKVLQASALDRGQLLLIPEAPGQSVLYLWTRDGTERHLSISV,-0.81
25,HMDRESFIKLGRELARSAFAHVGQKSTEKALETAADVLRLKDPNEVLARLGSAELTGRQVVQAIYPELI,0.0233
26,HMDRFRYYITEDSVQRGTYPYVDETTLKRFTSQLHKYEQGMISAYGYLEYSKPLTAEQIKDYTLMPSP,-0.485
27,HMDRFVLQLSKRYYDSSIEGVRKALAAFPVKTELLDQDRGGRPFYHENGKENEPVFRIMFHPEEGM,-0.116
28,HMDRIISTPMPGRVVKIPVTEGEPVAKGATVITISAMKMESEYKSPIDGIVKKIHVSEGDNINANQPLIEI,-0.112
29,HMDRKFFYEDQYQDYLGEELKVSFFDTDNKKTVRGTLSEVTPHGIKINLEQETQEIPFSSIIQANLI,-0.44
30,HMDRPARDEAQSWLADVLADGPVPTAEIREEAEAAGLAWRTIQRARIALSVEPIRGDGRNAWLWQLPG,0.377
